According to IntAct's records for PubMed 21041660:

B1: Cell division control protein 6 homolog (Homo sapiens), Q99741 (parent)
chain: MPQTRSQAQATISFPKRKLSRALNKAKNSSDAKLEPTNVQTVTCSPRVKALPLSPRKRLGDDNLCNTPHLPPCSPPKQGKKENGPPHSHTLKGRRLVFDNQLTIKSPSKRELAKVHQNKILSSVRKSQEITTNSEQRCPLKKESACVRLFKQEGTCYQQAKLVLNTAVPDRLPAREREMDVIRNFLREHICGKKAGSLYLSGAPGTGKTACLSRILQDLKKELKGFKTIMLNCMSLRTAQAVFPAIAQEICQEEVSRPAGKDMMRKLEKHMTAEKGPMIVLVLDEMDQLDSKGQDVLYTLFEWPWLSNSHLVLIGIANTLDLTDRILPRLQAREKCKPQLLNFPPYTRNQIVTILQDRLNQVSRDQVLDNAAVQFCARKVSAVSGDVRKALDVCRRAIEIVESDVKSQTILKPLSECKSPSEPLIPKRVGLIHISQVISEVDGNRMTLSQEGAQDSFPLQQKILVCSLMLLIRQLKIKEVTLGKLYEAYSKVCRKQQVAAVDQSECLSLSGLLEARGILGLKRNKETRLTKVFFKIEEKEIEHALKDKALIGNILATGLP

Variants of: B1
Details: with cdk1_human CDK1, P06493
Chain of cdk1_human CDK1, P06493 (P06493 whole entry, looked up): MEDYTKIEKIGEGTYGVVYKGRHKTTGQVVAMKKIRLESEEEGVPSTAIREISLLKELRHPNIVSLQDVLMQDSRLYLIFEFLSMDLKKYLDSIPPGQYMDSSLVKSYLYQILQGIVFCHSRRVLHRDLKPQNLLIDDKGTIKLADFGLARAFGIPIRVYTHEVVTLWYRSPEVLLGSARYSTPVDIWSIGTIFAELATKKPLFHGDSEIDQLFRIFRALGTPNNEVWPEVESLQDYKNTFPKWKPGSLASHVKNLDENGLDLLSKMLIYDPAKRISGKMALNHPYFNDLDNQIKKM

| Variant | effect of a mutation on the interaction |
| --- | --- |
| T37V | disrupting interaction |

Variants of: B1
Details: with plk1_human PLK1, P53350
Chain of plk1_human PLK1, P53350 (P53350 whole entry): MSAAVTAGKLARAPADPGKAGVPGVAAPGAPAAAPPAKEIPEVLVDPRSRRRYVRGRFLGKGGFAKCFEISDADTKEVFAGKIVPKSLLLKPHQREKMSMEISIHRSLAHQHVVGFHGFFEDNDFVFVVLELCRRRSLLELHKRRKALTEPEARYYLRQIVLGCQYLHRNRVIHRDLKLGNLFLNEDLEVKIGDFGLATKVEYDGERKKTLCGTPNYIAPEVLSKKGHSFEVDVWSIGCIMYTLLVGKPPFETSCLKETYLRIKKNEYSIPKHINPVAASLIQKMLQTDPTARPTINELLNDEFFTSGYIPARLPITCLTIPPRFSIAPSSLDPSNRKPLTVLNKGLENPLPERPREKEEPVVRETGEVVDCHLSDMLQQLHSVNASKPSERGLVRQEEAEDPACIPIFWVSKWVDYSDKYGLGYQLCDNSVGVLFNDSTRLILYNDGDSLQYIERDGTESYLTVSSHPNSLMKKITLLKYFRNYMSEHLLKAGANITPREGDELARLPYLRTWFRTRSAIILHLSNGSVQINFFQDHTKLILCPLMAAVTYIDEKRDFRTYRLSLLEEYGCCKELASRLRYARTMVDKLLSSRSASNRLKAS

| Variant | effect of a mutation on the interaction |
| --- | --- |
| T37V | disrupting interaction |
